This is an account of results in the Immune Epitope Database (IEDB).

Assay [1] addresses HLA-A*02:01. Put plainly: IEDB peptide-MHC binding, purified MHC/competitive/radioactivity; ≥ and ≤ were set here for values at or beyond the usual limits of such assays. To be noted: source organism: Vaccinia virus WR.
The target of the next assay is HLA-A*02:02. Put plainly: IEDB peptide-MHC binding, cellular MHC/competitive/fluorescence; ≥ and ≤ were set here for values at or beyond the usual limits of such assays.
A further assay addresses HLA-A*02:06. The description is as above.
Assay [2] deals with HLA-A*68:02. The assay is described as above. To be noted: source organism: Vaccinia virus WR.
A further assay addresses HLA-A*02:03. Described as above.
The target in assay [3] is HLA-A*68:02. Kind of assay: IEDB peptide-MHC binding, purified MHC/competitive/radioactivity; ≥ and ≤ were set here for values at or beyond the usual limits of such assays.
Assay [4] deals with HLA-A*02:01. Kind of assay: IEDB peptide-MHC binding, cellular MHC/competitive/fluorescence; ≥ and ≤ were set here for values at or beyond the usual limits of such assays.
[5] abbreviates: source organism: Vaccinia virus WR.
[6] abbreviates: source organism: Mammarenavirus choriomeningitidis.

Take DMLLNVQTL: the IC50 in the assay with HLA-A*02:01 [1] is 3.15 µM; in the assay with HLA-A*02:02 (setting [5]), 7.4 µM; with HLA-A*02:06 (setting [5]), 13.4 µM; with HLA-A*68:02 [2], 5.05 µM; with HLA-A*02:03 (setting [5]), 5.07 µM.
With ETFPNVHEHI, the IC50 is 0.00045 µM with HLA-A*68:02 [3] (setting [5]); 23.9 µM with HLA-A*02:01 [4] (setting [5]); 8.02 µM with HLA-A*02:02 (setting [5]); ≥ 70 µM with HLA-A*02:06 (setting [5]); 6.62 µM with HLA-A*02:03 (setting [5]).
Regarding ETIQKDINI, the IC50 with HLA-A*68:02 [3] (setting [5]) is 0.046 µM; in the assay with HLA-A*02:01 [4] (setting [5]), ≥ 70 µM; with HLA-A*02:02 (setting [5]), 36.6 µM; with HLA-A*02:06 (setting [5]), 34.9 µM; in the assay with HLA-A*02:03 (setting [5]), 50.8 µM.
Turning to ETKRNIARHL, the IC50 with HLA-A*68:02 [3] (setting [5]) is 0.721 µM; with HLA-A*02:01 [4] (setting [5]), ≥ 70 µM; with HLA-A*02:02 (setting [5]) it was 50 µM; with HLA-A*02:06 (setting [5]), ≥ 70 µM; with HLA-A*02:03 (setting [5]), 12.4 µM.
As for ETNIGCAVNT, the IC50 with HLA-A*68:02 [3] (setting [5]) is 0.022 µM; in the assay with HLA-A*02:01 [4] (setting [5]), 58.4 µM; in the assay with HLA-A*02:02 (setting [5]), ≥ 70 µM; with HLA-A*02:06 (setting [5]) it was ≥ 70 µM; with HLA-A*02:03 (setting [5]), 37 µM.
Regarding ETVKMGAFM, the IC50 with HLA-A*68:02 [3] (setting [5]) is 0.081 µM; with HLA-A*02:01 [4] (setting [5]) it was ≥ 70 µM; with HLA-A*02:02 (setting [5]), 15 µM; in the assay with HLA-A*02:06 (setting [5]) it was 40.2 µM; in the assay with HLA-A*02:03 (setting [5]) it was 7.43 µM.
For EVIGLTTHCT, the IC50 with HLA-A*68:02 [3] (setting [5]) was found to be 0.017 µM; with HLA-A*02:01 [4] (setting [5]) it was 24.8 µM; with HLA-A*02:02 (setting [5]), 10.5 µM; in the assay with HLA-A*02:06 (setting [5]), 12.2 µM; in the assay with HLA-A*02:03 (setting [5]), 14.9 µM.
On to FTELENKKV, for which the IC50 with HLA-A*68:02 [3] (setting [5]) was 3.98 µM; with HLA-A*02:01 [4] (setting [5]), ≥ 70 µM; with HLA-A*02:02 (setting [5]) it was 19.6 µM; with HLA-A*02:06 (setting [5]), 6.84 µM; with HLA-A*02:03 (setting [5]), 8.08 µM.
Take GLESIEQNLT: the IC50 with HLA-A*68:02 [3] (setting [5]) was 1.44 µM; with HLA-A*02:01 [4] (setting [5]), 34.4 µM; in the assay with HLA-A*02:02 (setting [5]), 7.02 µM; with HLA-A*02:06 (setting [5]), ≥ 70 µM; with HLA-A*02:03 (setting [5]), 61.3 µM.
Take HNASDFYGL: the IC50 was 0.147 µM in the assay with HLA-A*68:02 [3] (setting [6]); 15.5 µM in the assay with HLA-A*02:01 [4] (setting [6]); 6.51 µM in the assay with HLA-A*02:02 (setting [6]); 21.8 µM in the assay with HLA-A*02:06 (setting [6]); ≥ 70 µM with HLA-A*02:03 (setting [6]).
For the sequence HTKFWISDNT, the IC50 in the assay with HLA-A*68:02 [3] (setting [5]) is 0.623 µM; with HLA-A*02:01 [4] (setting [5]), ≥ 70 µM; with HLA-A*02:02 (setting [5]), 21.5 µM; with HLA-A*02:06 (setting [5]) it was ≥ 70 µM; with HLA-A*02:03 (setting [5]), 60.2 µM.
As to IAIFNNRNL, the IC50 with HLA-A*68:02 [3] (setting [5]) came to 0.262 µM; with HLA-A*02:01 [4] (setting [5]), 38.5 µM; with HLA-A*02:02 (setting [5]), 9.23 µM; with HLA-A*02:06 (setting [5]) it was 13.5 µM; with HLA-A*02:03 (setting [5]), 10.5 µM.
As for IAVFDSKLI, the IC50 with HLA-A*02:01 [1] was determined as 3.85 µM; with HLA-A*02:02 (setting [5]), 7.85 µM; with HLA-A*02:06 (setting [5]) it was 11.9 µM; with HLA-A*68:02 [2] it was 6.79 µM; with HLA-A*02:03 (setting [5]), 11.9 µM.
IMECSRMLDT: the IC50 with HLA-A*02:01 [1] was 3.1 µM; with HLA-A*02:02 (setting [5]) it was 5.24 µM; with HLA-A*02:06 (setting [5]) it was ≥ 70 µM; with HLA-A*68:02 [2], ≥ 70 µM; with HLA-A*02:03 (setting [5]), 7.2 µM.
With LIYYQNEVT, the IC50 stood at 1.08 µM in the assay with HLA-A*68:02 [3] (setting [5]); 27.9 µM in the assay with HLA-A*02:01 [4] (setting [5]); 14 µM with HLA-A*02:02 (setting [5]); 8.51 µM with HLA-A*02:06 (setting [5]); 5.21 µM with HLA-A*02:03 (setting [5]).
Take LLDEPLSPDT: the IC50 with HLA-A*02:01 [1] is 3.6 µM; with HLA-A*02:02 (setting [5]) it was 8.51 µM; in the assay with HLA-A*02:06 (setting [5]), 7.84 µM; in the assay with HLA-A*68:02 [2], ≥ 70 µM; with HLA-A*02:03 (setting [5]), 10.1 µM.
Consider LTHGADPNA, for which the IC50 with HLA-A*68:02 [3] (setting [5]) is 1.37 µM; in the assay with HLA-A*02:01 [4] (setting [5]), ≥ 70 µM; with HLA-A*02:02 (setting [5]), 19.4 µM; with HLA-A*02:06 (setting [5]), 29.4 µM; with HLA-A*02:03 (setting [5]), 10.5 µM.
Turning to LTSNCTRTT, the IC50 was 2.02 µM with HLA-A*68:02 [3] (setting [5]); ≥ 70 µM with HLA-A*02:01 [4] (setting [5]); ≥ 70 µM in the assay with HLA-A*02:02 (setting [5]); 40.7 µM with HLA-A*02:06 (setting [5]); 29.6 µM with HLA-A*02:03 (setting [5]).
For the sequence MAFILGIII, the IC50 in the assay with HLA-A*68:02 [3] (setting [5]) is 4.93 µM; in the assay with HLA-A*02:01 [4] (setting [5]), 5.87 µM; in the assay with HLA-A*02:02 (setting [5]), 9.54 µM; with HLA-A*02:06 (setting [5]) it was 32.5 µM; in the assay with HLA-A*02:03 (setting [5]), 9.76 µM.
On to NACDKHNKT, for which the IC50 stood at 0.925 µM with HLA-A*68:02 [3] (setting [5]); 22.5 µM with HLA-A*02:01 [4] (setting [5]); 17.9 µM with HLA-A*02:02 (setting [5]); 18.6 µM with HLA-A*02:06 (setting [5]); 9.25 µM with HLA-A*02:03 (setting [5]).
With NIREGTHVLL, the IC50 came to 2.53 µM with HLA-A*68:02 [3] (setting [5]); 13.4 µM in the assay with HLA-A*02:01 [4] (setting [5]); 8.88 µM with HLA-A*02:02 (setting [5]); 34.6 µM with HLA-A*02:06 (setting [5]); 5.51 µM with HLA-A*02:03 (setting [5]).
For NITHTNITTL the same measures were 4.91 µM, 10.1 µM, 10.4 µM, 8.17 µM and 5.02 µM.
Turning to NTGMGMYYPT, the IC50 was found to be 2.15 µM in the assay with HLA-A*68:02 [3] (setting [5]); 28.8 µM with HLA-A*02:01 [4] (setting [5]); 23.4 µM in the assay with HLA-A*02:02 (setting [5]); 11.3 µM in the assay with HLA-A*02:06 (setting [5]); 21 µM with HLA-A*02:03 (setting [5]).

Broadly, the IC50 is the midpoint of a concentration-inhibition curve.
